Measurements reported in patent publication US12226476B2, “Helper epitope peptide and application thereof” (CHINA PHARMACEUTICAL UNIVERSITY, priority 2018, dated 2025).
Non-standard residues stand in square brackets, D forms with d. Phe(4-NO2) = N[C@@H](Cc1ccc([N+](=O)[O-])cc1)C(=O)O

Key:
Experiment in all cases: Antibody titer in serum of immunized mice, indirect ELISA
Assay type in all cases: in vivo
[1] = test system: CD20; conditions: FIG. 5; compared with the CD20 group and the CD20-PADRE group; mice immunized subcutaneously, 50 μg, Freund's adjuvant
Method: (§1) The protocol is as follows: • (1) The helper epitope was connected to individual antigens or antigen epitope with the linking peptide to construct multiple fusion antigens. The sequence of the linking peptide is GPSL (i.e. Gly-Pro-Ser-Leu) (SEQ ID NO:51). • (2) The fusion antigens from (1) were emulsified adequately with complete Freund's adjuvant of the same volume. Then to immunize mice via subcutaneous injection with the emulsion at the dose of 50 μg per mouse. The strains of experimental mice including C57, Fvb and Balb/C. After 7 days and 14 days of first immunization, the fusion antigens from (1) were emulsified adequately with incomplete Freund's adjuvant of the same volume and then to immunize mice via subcutaneous injection with the emulsion at the dose of 50 μg per mouse. • (3) There are two detection methods. One is to obtain the orbital blood of immunized mice on 7, 14, 21 and 28 day respectively, centrifuge the whole blood to get the serum. Then the antibody titer is detected by indirect ELISA. The other one is: one week after the last immunization, the mice are killed to get the spleen. PBMC (peripheral blood mononuclear cells) are isolated, and the CTL-mediated cytotoxicity is detected by LDH (lactate dehydrogenase) kit.
(§2) The first step was to construct the fusion antigen. According to each fusion antigen, C57BL/6 female mice aged 6-8 weeks were randomly divided into three groups with 6 mice in each group. They were PBS group, existing antigen or antigen epitope group, antigen-PADRE or antigen epitope-PADRE group, and vaccine group containing fusion antigen.
(§3) In the second step, using fusion antigen to immunize mice via subcutaneous injection for 3 times […] 50 μg each time. Mixed with Freund's adjuvant of the same volume.
(§4) Method 1: The whole blood was collected every week after immunization and centrifugated at 6000 rpm for 20 min to obtain the serum for a total of 4 weeks. Antibody titers were detected by indirect ELISA as follows: • (1) Coating: the existing antigen or antigen epitope was diluted to 5 μg/mL with coating solution. Then the 100 μL mixed solution was added into each well of enzyme immunoassay test strip, and incubated in 37° C. incubator for 2 h; • (2) use PBST to wash each well 5 times for 5 min each time; • (3) Sealing: 150 μL locking solution was added to each well of the enzyme immunoassay test strip and incubated at 4° C. overnight. • (4) Repeat step (2); • (5) Incubation first antibody: the collected mouse serum was diluted with antibody diluent. Then the 100 μL mixed solution was added into each well, and incubated at 37° C. for 2 h; • (6) Repeat step (2); • (7) Incubating secondary antibodies: HRP-GOAT Anti-mouse IgG was diluted with antibody dilution in the ratio of 1:10000, and 100 μL dilution was added to each well, and incubated at 37° C. for 45 min; • (8) Repeat step (2); • (9) Substrate addition: 100 μL TMB substrate reaction solution was added into each well of enzyme label, and incubated at 37° C. for 15 min in darkness. • (10) Termination reaction: 50 μL 2M H2SO4 was added into each well to terminate the reaction. • (11) Color development: the absorbance value of the sample in each well was detected at 450/630 nm.

[2] = test system: EGFR; conditions: FIG. 4; compared with the EGFR group and the EGFR-PADRE group; mice immunized subcutaneously, 50 μg, Freund's adjuvant
Method: as §1, §2, §3, §4

[3] = test system: CD66e; conditions: FIG. 6; compared with the CD66e group and the CD66e-PADRE group; mice immunized subcutaneously, 50 μg, Freund's adjuvant
Method: as §1, §2, §3, §4

[4] = test system: PD-L1 molecule; conditions: FIG. 2; compared with the PD-L1 group and the PD-L1-PADRE group; mice immunized subcutaneously, 50 μg, Freund's adjuvant
Method: as §1, §2, §3, §4

B1: CD20-5pPhe-PADRE: fusion antigen: CD20 linked via GPSL to helper epitope SEQ ID NO: 6 (protein)
chain: MTTPRNSVNGTFPAEPMKGPIAMQSGPKPLFRRMSSLVGPTQSFFMRESKTLGAVQIMNGLFHIALGGLLMIPAGIYAPICVTVWYPLWGGIMYIISGSLLAATEKNSRKCLVKGKMIMNSLSLFAAISGMILSIMDILNIKISHFLKMESLNFIRAHTPYINIYNCEPANPSEKNSPSTQYCYSIQSLFLGILSVMLIFAFFQELVIAGIVENEWKRTCSRPKSNIVLLSAEEKKEQTIEIKEEVVGLTETSSQPKNEEDIEIIPIQEEEEEETETNFPEPPQDQESSPIENDSSPGPSLAKFV[Phe(4-NO2)]AWTLKAAA
[1]
  antibody titer: significant increase

B2: EGFR-4pPhe-PADRE: fusion antigen: EGFR linked via GPSL to helper epitope SEQ ID NO: 5 (protein)
chain: MERKERPFDVIGQLAALRRYARSLVRNSDDAEDLVHDALLRAYEKKQSFRRGGNLRTWLLSIMHNAHIDRVRQARSLARRHDEAAVEAEQSLQAGQEHAVRLKQVRDAFFHLSEEQREALHLVAIEDLSYQEAAMALDIPIGTLMSRISRARAQLREFEEKTPRAAHLRLIGGDGNEGNGPSLAKF[Phe(4-NO2)]AAWTLKAAA
[2]
  antibody titer: increased significantly

B3: CD66e-6pPhe-PADRE: fusion antigen: CD66e linked via GPSL to helper epitope SEQ ID NO: 7 (protein)
chain: KLTIESTPFNVAEGKEVLLLVHNLPQHLFGYSWYKGERVDGNRQIIGYVIGTQQATPGPAYSGREIIYPNASLLIQNIIQNDTGFYTLHVIKSDLVNEEATGQFRVYPELPKPSISSNNSKPVEDKDAVAFTCEPETQDATYLWWVNNQSLPVSPRLQLSNGNRTLTLFNVTRNDTASYKCETQNPVSARRSDSVILNVLYGPDAPTISPLNTSYRSGENLNLSCHAASNPPAQYSWFVNGTFQQSTQELFIPNITVNNSGSYTCQAHNSDTGLNRTTVTTITVYAEPPKPFITSNNSNPVEDEDAVALTCEPEIQNTTYLWWVNNQSLPVSPRLQLSNDNRTLTLLSVTRNDVGPYECGIQNKLSVDHSDPVILNVLYGPDDPTISPSYTYYRPGVNLSLSCHAASNPPAQYSWLIDGNIQQHTQELFISNITEKNSGLYTCQANNSASGHSRTTVKTITVSAELPKPSISSNNSKPVEDKDAVAFTCEPEAQNTTYLWWVNGQSLPVSPRLQLSNGNRTLTLFNVTRNDARAYVCGIQNSVSANRSDPVTLDVLYGPDTPIISPPDSSYLSGANLNLSCHSASNPSPQYSWRINGIPQQHTQVLFIAKITPNNNGTYACFVSNLATGRNNSIVKSITVSASGTSPGLSAGPSLAKFVA[Phe(4-NO2)]WTLKAAA
[3]
  antibody titer: significant increase

B4: PD/L1-2pPhe-PADRE: fusion antigen: PD-L1 molecule linked via GPSL to helper epitope SEQ ID NO: 3 (protein)
chain: MQLKPMEINPEMLNKVLSRLGVAGQWRFVDVLGLEEESLGSVPAPACALLLLFPLTAQHENFRKKQIEELKGQEVSPKVYFMKQTIGNSCGTIGLIHAVANNQDKLGFEDGSVLKQFLSETEKMSPEDRAKCFEKNEAIQAAHDAVAQEGQCRVDDKVNFHFILFNNVDGHLYELDGRMPFPVNHGASSEDTLLKDAAKVCREFTEREQGEVRFSAVALCGPSLA[Phe(4-NO2)]FVAAWTLKAAA
[4]
  antibody titer: significant increase
